Columns and labels:
[1] = target: wild-type Cdc2/cyclin B1 complex (UniProt P06493)
[2] = target: Cdc2-AF/CyclinB1 complex (UniProt P06493)
[3] = target: kinase-deficient Cdc2 mutant (K-) complexed with cyclin B1 (UniProt P06493)
[4] = target: Cdc2-F15/CyclinB1 complex (UniProt P06493)
Cdc2-F15/CyclinB1 complex, sequence (P06493 whole entry, looked up, one chain of several): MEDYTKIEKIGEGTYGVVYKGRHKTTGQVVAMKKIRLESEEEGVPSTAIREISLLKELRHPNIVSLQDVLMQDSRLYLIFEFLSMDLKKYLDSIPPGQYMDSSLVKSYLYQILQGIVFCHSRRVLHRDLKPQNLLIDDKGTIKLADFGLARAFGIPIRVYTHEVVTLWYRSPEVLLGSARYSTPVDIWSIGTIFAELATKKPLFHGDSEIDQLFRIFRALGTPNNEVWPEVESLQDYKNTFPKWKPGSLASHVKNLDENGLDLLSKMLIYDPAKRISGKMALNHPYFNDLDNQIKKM

full-length human Wee1 with N-terminal Glu-Glu tag, expressed in Sf9 cells, sequence (chain, as listed by the source): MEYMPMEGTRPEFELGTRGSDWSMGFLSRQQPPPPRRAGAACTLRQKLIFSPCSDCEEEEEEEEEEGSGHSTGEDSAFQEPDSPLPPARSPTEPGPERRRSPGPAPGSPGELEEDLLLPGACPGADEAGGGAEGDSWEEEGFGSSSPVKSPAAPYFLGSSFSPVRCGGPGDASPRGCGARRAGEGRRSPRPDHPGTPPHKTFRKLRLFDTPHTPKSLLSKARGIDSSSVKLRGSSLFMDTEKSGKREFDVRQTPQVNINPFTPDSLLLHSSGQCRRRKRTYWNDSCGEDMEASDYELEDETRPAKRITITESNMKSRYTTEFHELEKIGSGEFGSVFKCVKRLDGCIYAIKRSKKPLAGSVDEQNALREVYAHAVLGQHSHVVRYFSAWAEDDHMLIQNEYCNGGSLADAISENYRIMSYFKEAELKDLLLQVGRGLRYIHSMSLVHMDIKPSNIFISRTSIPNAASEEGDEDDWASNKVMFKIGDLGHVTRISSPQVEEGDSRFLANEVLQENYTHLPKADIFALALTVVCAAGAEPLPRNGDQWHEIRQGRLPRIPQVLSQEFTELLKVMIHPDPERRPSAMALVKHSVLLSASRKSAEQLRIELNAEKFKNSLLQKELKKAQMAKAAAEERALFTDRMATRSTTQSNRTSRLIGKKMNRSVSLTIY
wild-type Cdc2/cyclin B1 complex, sequence (P06493 whole entry, looked up, one chain of several): as the sequence (P06493 whole entry, looked up, one chain of several) above
Cdc2-AF/CyclinB1 complex, sequence (P06493 whole entry, looked up, one chain of several): as above
kinase-deficient Cdc2 mutant (K-) complexed with cyclin B1, sequence (P06493 whole entry, looked up, change not shown, one chain of several): as the sequence (P06493 whole entry, looked up, one chain of several) above

## full-length human Wee1 with N-terminal Glu-Glu tag, expressed in Sf9 cells
[1]
  histone H1 kinase activity of Cdc2/CyclinB1 in mixed Sf9 lysates: the addition of Wee1 lysates effectively inhibited Cdc2/CyclinB1 kinase activation
[2]
  histone H1 kinase activity in mixed Sf9 lysates: Cdc2-F15/CyclinB1 and Cdc2-AF/CylinB1 complexes retained full activity in the presence of Wee1 lysates
[3]
  phosphoamino acid analysis of 32P-labeled Cdc2: the Tyrosine 15 residue was readily phosphorylated by full-length Wee1
[4]
  histone H1 kinase activity in mixed Sf9 lysates: Cdc2-F15/CyclinB1 and Cdc2-AF/CylinB1 complexes retained full activity in the presence of Wee1 lysates
